Experimental findings from article PMC7525490, “Uridine diphosphate N-acetylglucosamine orchestrates the interaction of GlmR with either YvcJ or GlmS in Bacillus subtilis” (Scientific Reports, 2020) are described below.

One data set concerns the target T1, YvcJ (Bacillus subtilis, UniProt O06973).
T1 construct: 6His-tagged recombinant YvcJ
T1 sequence (O06973 1-295): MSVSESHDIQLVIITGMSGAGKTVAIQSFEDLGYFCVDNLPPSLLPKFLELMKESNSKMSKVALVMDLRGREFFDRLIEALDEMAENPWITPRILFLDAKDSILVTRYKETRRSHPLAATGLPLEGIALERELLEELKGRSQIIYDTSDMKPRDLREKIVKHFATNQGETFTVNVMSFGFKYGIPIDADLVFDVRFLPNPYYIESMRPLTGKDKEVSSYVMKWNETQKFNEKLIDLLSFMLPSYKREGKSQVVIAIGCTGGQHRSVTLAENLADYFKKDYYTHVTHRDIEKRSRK
As to the kind of experiment: thermal shift assay (SYPRO Orange) with apparent KD; supported by limited proteolysis with endoproteinase Glu-C. The format is binding.

In data set [1] the target is T2, YvcJ, purified 6His-tagged protein (Bacillus subtilis, UniProt O06973 1-295).
T2 chain: T1 sequence (O06973 1-295)

The target of data set [2] is T3, GlmS, glucosamine-6-phosphate synthase from B. subtilis, with a C-terminal 6His-tag (Bacillus subtilis 168, UniProt P0CI73 1-600).
T3 sequence (looked up): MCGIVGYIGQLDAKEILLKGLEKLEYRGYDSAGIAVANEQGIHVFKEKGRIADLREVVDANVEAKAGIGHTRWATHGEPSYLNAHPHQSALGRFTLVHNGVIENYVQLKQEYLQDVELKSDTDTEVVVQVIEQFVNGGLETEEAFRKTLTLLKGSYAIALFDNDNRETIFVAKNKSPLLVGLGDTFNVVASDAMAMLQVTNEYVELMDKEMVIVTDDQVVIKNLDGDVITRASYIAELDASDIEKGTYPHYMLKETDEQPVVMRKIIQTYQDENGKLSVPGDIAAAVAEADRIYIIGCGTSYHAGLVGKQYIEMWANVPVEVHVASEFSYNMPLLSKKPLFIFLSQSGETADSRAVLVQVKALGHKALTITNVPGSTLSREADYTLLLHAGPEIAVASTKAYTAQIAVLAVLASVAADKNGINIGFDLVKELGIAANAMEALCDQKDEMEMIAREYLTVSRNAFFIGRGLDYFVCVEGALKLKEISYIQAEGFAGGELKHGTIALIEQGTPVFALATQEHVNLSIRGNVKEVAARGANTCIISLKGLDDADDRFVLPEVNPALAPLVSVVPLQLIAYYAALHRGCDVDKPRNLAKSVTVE
As to the kind of experiment: cell-based or functional assay.

Data set [3] addresses T2, YvcJ, purified 6His-tagged protein. As to the kind of experiment: ITC; 1 mM UDP-GlcNAc.
Data set [4] concerns the molecule itself. As to the kind of experiment: dynamic light scattering; 24 µM YvcJ alone, without or with 0.4 mM UDP-GlcNAc; 25 °C; 50 mM Tris-HCl pH 7.5, 50 mM NaCl, 5% glycerol.
Data set [5] deals with the molecule itself. As to the kind of experiment: dynamic light scattering; 24 µM YvcJ with 7 µM GlmR (ratio 1:0.3 YvcJ:GlmR) and 0.4 mM UDP-GlcNAc; 25 °C; 50 mM Tris-HCl pH 7.5, 50 mM NaCl, 5% glycerol.

In the case of `CC(=O)N[C@H]1[C@@H](OP(=O)(O)OP(=O)(O)OC[C@H]2O[C@@H](n3ccc(=O)[nH]c3=O)[C@H](O)[C@@H]2O)O[C@H](CO)[C@@H](O)[C@@H]1O` [UDP-GlcNAc], the Kd at YvcJ was 280 ± 470 µM.

B1: GlmR (formerly YvcK), purified 6His-tagged protein (natural protein)
chain: MGQKPKIAIFGGGTGLSVLLRGLKHKPVDITAIVTVADDGGSSGRLRNELKIPPPGDIRNVLAALSDVEPLVEDLFQHRFNKGNDLTGHSLGNLILAAMTNITGDFFHAVTEMSKVLNVRGKVLPAANASVVLHAEMEDGRVVSGESTIPEYGQRIKRVFLTPEQIDPLPETIDVIREADLIIIGPGSLYTSILPNLLVPKIGEEVIKAPAKKVYICNVMTQPGETLHYTAADHVKALNQHMGCGFIDTILVNSEDIPDEIKRKYEMESARPVDFDIEELKAMGLEVIRDQIVTYKNDVIRHDTHKVASLLVDLLKE
With B1, in data set [1], the hydrodynamic size of YvcJ by dynamic light scattering; 24 µM YvcJ titrated with GlmR at a ratio 1:0.3 in the presence of 0.4 mM UDP-GlcNAc worked out at 124 nm. The “GlmS specific activity (GlcN6P produced, enzyme-coupled assay with GNA-1, CoASH at 412 nm, 37 °C); 7.3 µM GlmS with 0 to 32.1 µM GlmR, no UDP-GlcNAc” value in data set [2] stood at 16 fold. Moreover, the Kd in data set [3] was 9.03 µM.

B2: YvcJ, purified 6His-tagged protein (natural protein, Bacillus subtilis, UniProt O06973 1-295, looked up)
chain: T1 sequence (O06973 1-295)
notes: Cloned BamHI/XhoI in pET21: the His tag is probably C-terminal and vector residues may precede Met1 (surmised); also called RapZ homologue; source: purified (Ni2+-NTA resin, PD-10 column) as previously described
As for B2, the “stoichiometry N” value in data set [4] was approximately 15 molecules; in data set [5], 5 molecules.
